Experimental data reported in patent US20250073302A1, “CYCLIC PEPTIDES AS PROTEASOME STIMULATORS” (Purdue Research Foundation, priority 2023, published 2025).
Non-standard residues stand in square brackets, D forms with d. dBpa = N[C@H](Cc1ccc(C(=O)c2ccccc2)cc1)C(=O)O; dPhe(3,4-F2) = N[C@H](Cc1ccc(F)c(F)c1)C(=O)O; dPhe(3-F) = N[C@H](Cc1cccc(F)c1)C(=O)O; dPhe(4-F) = N[C@H](Cc1ccc(F)cc1)C(=O)O

The substances below were run against T1, 20S CP (assay: TAS-1 biochemical assay (20S CP stimulation)). Details: TAS-1 assay.
T1 construct: purchased South Bay
Description: Each compound was initially tested at 10 μM. Each well contained […] of 11.4 μM TAS-1 solution in Tris HCl (50 mM, pH 7.4) along with 5 nM of 20 sCP (South Bay). 1 μL of the test compound, control, or DMSO was added to the desired well to obtain a final DMSO concentration of 2%, with the total volume being 50 μL. Compounds were tested in three replicates that each had technical triplicates. The fluorescence was recorded using a SynergyNeo 2, where the excitation and emission was set to 335 nm and 493 nm. The plate reader was heated to 37° C. The fluorescence was recorded every 90 seconds over a 1-hour period. A simple linear regression was performed on the data plotted against time to obtain the rate of hydrolysis of TAS-1 by the 20S CP. The data was then normalized against DMSO to get the percent stimulation.

| Substance | 20S CP stimulatory activity (in words, SAR compared to CyPPS1) |
| --- | --- |
| KLFFRA [SEQ ID NO: 7] (cyclo(K[dL]F[dF]R[dA]); SMILES CC(C)C[C@H]1NC(=O)[C@H](CCCCN)NC(=O)[C@@H](C)NC(=O)[C@H](CCCNC(=N)N)NC(=O)[C@@H](Cc2ccccc2)NC(=O)[C@H](Cc2ccccc2)NC1=O) [CyPPS7, cyclic peptide; AA1 Lys, AA2 D-Leu, AA3 Phe, AA4 D-Phe, AA5 Arg, AA6 D-Ala] | decreased activity |
| TAFFRA [SEQ ID NO: 3] (cyclo(T[dA]F[dF]R[dA]); SMILES C[C@H]1NC(=O)[C@H](CCCNC(=N)N)NC(=O)[C@@H](Cc2ccccc2)NC(=O)[C@H](Cc2ccccc2)NC(=O)[C@@H](C)NC(=O)[C@H]([C@@H](C)O)NC1=O) [CyPPS3, cyclic peptide; AA1 Thr, AA2 D-Ala, AA3 Phe, AA4 D-Phe, AA5 Arg, AA6 D-Ala] | greatest loss of stimulatory activity |
| TDFFRA [SEQ ID NO: 10] (cyclo(T[dD]F[dF]R[dA]); SMILES C[C@H]1NC(=O)[C@H](CCCNC(=N)N)NC(=O)[C@@H](Cc2ccccc2)NC(=O)[C@H](Cc2ccccc2)NC(=O)[C@@H](CC(=O)O)NC(=O)[C@H]([C@@H](C)O)NC1=O) [CyPPS10, cyclic peptide; AA1 Thr, AA2 D-Asp, AA3 Phe, AA4 D-Phe, AA5 Arg, AA6 D-Ala] | decreased activity |
| TIFFRA [SEQ ID NO: 12] (cyclo(T[dI]F[dF]R[dA]); SMILES CC[C@@H](C)[C@H]1NC(=O)[C@H]([C@@H](C)O)NC(=O)[C@@H](C)NC(=O)[C@H](CCCNC(=N)N)NC(=O)[C@@H](Cc2ccccc2)NC(=O)[C@H](Cc2ccccc2)NC1=O) [CyPPS12, cyclic peptide; AA1 Thr, AA2 D-Ile, AA3 Phe, AA4 D-Phe, AA5 Arg, AA6 D-Ala] | lack of activity |
| TKFFRA [SEQ ID NO: 11] (cyclo(T[dK]F[dF]R[dA]); SMILES C[C@H]1NC(=O)[C@H](CCCNC(=N)N)NC(=O)[C@@H](Cc2ccccc2)NC(=O)[C@H](Cc2ccccc2)NC(=O)[C@@H](CCCCN)NC(=O)[C@H]([C@@H](C)O)NC1=O) [CyPPS11, cyclic peptide; AA1 Thr, AA2 D-Lys, AA3 Phe, AA4 D-Phe, AA5 Arg, AA6 D-Ala] | decreased activity |
| TLFARA [SEQ ID NO: 5] (cyclo(T[dL]F[dA]R[dA]); SMILES CC(C)C[C@H]1NC(=O)[C@H]([C@@H](C)O)NC(=O)[C@@H](C)NC(=O)[C@H](CCCNC(=N)N)NC(=O)[C@@H](C)NC(=O)[C@H](Cc2ccccc2)NC1=O) [CyPPS5, cyclic peptide; AA1 Thr, AA2 D-Leu, AA3 Phe, AA4 D-Ala, AA5 Arg, AA6 D-Ala] | greatest loss of stimulatory activity |
| TLFFAR [SEQ ID NO: 6] (cyclo(T[dL]F[dF]A[dR]); SMILES CC(C)C[C@H]1NC(=O)[C@H]([C@@H](C)O)NC(=O)[C@@H](CCCNC(=N)N)NC(=O)[C@H](C)NC(=O)[C@@H](Cc2ccccc2)NC(=O)[C@H](Cc2ccccc2)NC1=O) [CyPPS6, cyclic peptide; AA1 Thr, AA2 D-Leu, AA3 Phe, AA4 D-Phe, AA5 Ala, AA6 D-Arg] | stimulatory activity was preserved |
| TLFFRS [SEQ ID NO: 22] (cyclo(T[dL]F[dF]R[dS]); SMILES CC(C)C[C@H]1NC(=O)[C@H]([C@@H](C)O)NC(=O)[C@@H](CO)NC(=O)[C@H](CCCNC(=N)N)NC(=O)[C@@H](Cc2ccccc2)NC(=O)[C@H](Cc2ccccc2)NC1=O) [CyPPS22, cyclic peptide; AA1 Thr, AA2 D-Leu, AA3 Phe, AA4 D-Phe, AA5 Arg, AA6 D-Ser] | maintained stimulatory activity |
| TLFXRA [SEQ ID NO: 18] (cyclo(T[dL]F[dPhe(4-F)]R[dA]); SMILES CC(C)C[C@H]1NC(=O)[C@H]([C@@H](C)O)NC(=O)[C@@H](C)NC(=O)[C@H](CCCNC(=N)N)NC(=O)[C@@H](Cc2ccc(F)cc2)NC(=O)[C@H](Cc2ccccc2)NC1=O) [CyPPS18, cyclic peptide; AA1 Thr, AA2 D-Leu, AA3 Phe, AA4 D-Phe (4F), AA5 Arg, AA6 D-Ala] | decreased activity |
| TLFXRA [SEQ ID NO: 19] (cyclo(T[dL]F[dPhe(3-F)]R[dA]); SMILES CC(C)C[C@H]1NC(=O)[C@H]([C@@H](C)O)NC(=O)[C@@H](C)NC(=O)[C@H](CCCNC(=N)N)NC(=O)[C@@H](Cc2cccc(F)c2)NC(=O)[C@H](Cc2ccccc2)NC1=O) [CyPPS19, cyclic peptide; AA1 Thr, AA2 D-Leu, AA3 Phe, AA4 D-Phe (3F), AA5 Arg, AA6 D-Ala] | retained activity |
| TLFXRA [SEQ ID NO: 20] (cyclo(T[dL]F[dPhe(3,4-F2)]R[dA]); SMILES CC(C)C[C@H]1NC(=O)[C@H]([C@@H](C)O)NC(=O)[C@@H](C)NC(=O)[C@H](CCCNC(=N)N)NC(=O)[C@@H](Cc2ccc(F)c(F)c2)NC(=O)[C@H](Cc2ccccc2)NC1=O) [CyPPS20, cyclic peptide; AA1 Thr, AA2 D-Leu, AA3 Phe, AA4 D-Phe (3, 4F), AA5 Arg, AA6 D-Ala] | retained activity |
| TLFXRA [SEQ ID NO: 21] (cyclo(T[dL]F[dBpa]R[dA]); SMILES CC(C)C[C@H]1NC(=O)[C@H]([C@@H](C)O)NC(=O)[C@@H](C)NC(=O)[C@H](CCCNC(=N)N)NC(=O)[C@@H](Cc2ccc(C(=O)c3ccccc3)cc2)NC(=O)[C@H](Cc2ccccc2)NC1=O) [CyPPS21, cyclic peptide; AA1 Thr, AA2 D-Leu, AA3 Phe, AA4 D-BPA, AA5 Arg, AA6 D-Ala] | stimulatory activity was maintained |
| TLFYRA [SEQ ID NO: 17] (cyclo(T[dL]F[dY]R[dA]); SMILES CC(C)C[C@H]1NC(=O)[C@H]([C@@H](C)O)NC(=O)[C@@H](C)NC(=O)[C@H](CCCNC(=N)N)NC(=O)[C@@H](Cc2ccc(O)cc2)NC(=O)[C@H](Cc2ccccc2)NC1=O) [CyPPS17, cyclic peptide; AA1 Thr, AA2 D-Leu, AA3 Phe, AA4 D-Tyr, AA5 Arg, AA6 D-Ala] | decline in stimulatory activity |
| TLYFRA [SEQ ID NO: 16] (cyclo(T[dL]Y[dF]R[dA]); SMILES CC(C)C[C@H]1NC(=O)[C@H]([C@@H](C)O)NC(=O)[C@@H](C)NC(=O)[C@H](CCCNC(=N)N)NC(=O)[C@@H](Cc2ccccc2)NC(=O)[C@H](Cc2ccc(O)cc2)NC1=O) [CyPPS16, cyclic peptide; AA1 Thr, AA2 D-Leu, AA3 Tyr, AA4 D-Phe, AA5 Arg, AA6 D-Ala] | decline in stimulatory activity |
| VLFFRA [SEQ ID NO: 9] (cyclo(V[dL]F[dF]R[dA]); SMILES CC(C)C[C@H]1NC(=O)[C@H](C(C)C)NC(=O)[C@@H](C)NC(=O)[C@H](CCCNC(=N)N)NC(=O)[C@@H](Cc2ccccc2)NC(=O)[C@H](Cc2ccccc2)NC1=O) [CyPPS9, cyclic peptide; AA1 Val, AA2 D-Leu, AA3 Phe, AA4 D-Phe, AA5 Arg, AA6 D-Ala] | maintained stimulatory activity |
